Assay results from the supplement of paper PMC7125110.
± gives the standard error. This sample holds only a part of the variants without activity.

B1: glmS ribozyme (parent)
chain: AUAAAAGCGCCAGAACUACAGAAAUGUAGUUGACGAGGAGGAGGUUUAUCGAAUUUUCGGCGGAUGCCUCCAAA

Variants of: B1
Assay: self-cleavage kobs at 2500 uM GlcN6P; higher = faster cleavage; RNA array
Details: with glucosamine-6-phosphate
How it was run: (§1)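 Over ~14 h at 37 °C, tiles were imaged as glucosamine-6-phosphate (40 μM to 10 mM) in HEPES/KCl/Mg(OAc)2 buffer flowed across sequenced MiSeq chips. The chips carried barcoded ribozyme variants transcribed in situ by E. coli RNA polymerase and tracked with a hybridised Cy3 probe. After normalisation to baseline and to non-cleaving reference variants, one- or two-exponential decay fits of per-tile medians gave kobs. kcat and KM followed from weighted Michaelis–Menten fits across concentrations.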

| Variant | self-cleavage kobs at 2500 uM GlcN6P [s⁻¹] |
| --- | --- |
| G29U U49A C70G | 5.3e-05 ± 1.9e-05 |
| C34G G37C G60U G63C | < 1e-05 |
| C10U A12U G63C C70A C71A | 5.29e-05 ± 1.7e-05 |
| C16G G29A G37A U49G C50U | < 1e-05 |
| G35U C61U C70U | < 1e-05 |
| C10A G44C A48C | < 1e-05 |
| A14U U46C U47G | 8.01e-05 ± 2.2e-05 |
| G29C G59A G66C | < 1e-05 |
| A12C G40U U54A | 0.000324 ± 6.9e-05 |
| G38A C58A C70G | 6.46e-05 ± 1.7e-05 |
| U30A G38U G40C | < 1e-05 |
| A33C A39G G40U U49A | < 1e-05 |
| A12G U45A C70G | 0.000143 ± 3.9e-05 |
| A36G G40C G60C | < 1e-05 |
| C10A A33U A48U | < 1e-05 |
| G37U U45G U65G | < 1e-05 |
| U30A G63A U69C | < 1e-05 |
| G35U U57A U69A | < 1e-05 |
| G7C G40U C50G G66C | < 1e-05 |
| G38C U46G G59A | < 1e-05 |
| C16U G41C C70A | 0.000347 ± 0.00017 |
| C16G U65A C71U | 0.000341 ± 8.1e-05 |
| A6C G13A G38U U57G A64U | < 1e-05 |

| Variant | self-cleavage kobs at 2500 uM GlcN6P [s⁻¹] |
| --- | --- |
| U56C C58U G63A | < 1e-05 |
| A6G C16U G40C U46A G66U | < 1e-05 |
| A6U G7C A15U G29C G38A G44A C61A | < 1e-05 |
| C34U C68U | < 1e-05 |
| G32A U45C | 0.000112 ± 3.8e-05 |
| A36U G38C U47G | < 1e-05 |
| U45A U47G U54G U56C | 0.00285 ± 0.00062 |
| G32U G37A G63C | < 1e-05 |
| G37U U56C C67A | < 1e-05 |
| A6G U54C G63C | < 1e-05 |
| U30C A53U G66U U69G | 0.000128 ± 2.7e-05 |
| A36U G40U A64C | < 1e-05 |
| G13C U31A A64G | 9.93e-05 ± 3e-05 |
| C10U C11A A12G G41C | < 1e-05 |
| C10A G40A U55A | < 1e-05 |
| A52C U69G | 9.19e-05 ± 4.2e-05 |
| A6G A53C C68A | < 1e-05 |
| G32A C68G C70G | < 1e-05 |
| U31G G41A U54C | 6.89e-05 ± 2.6e-05 |
| G7C A14C G60C | < 1e-05 |
| C10A A12U G37U U45A | < 1e-05 |
| A14C G35A A52G | < 1e-05 |
| G35U C50G G66A | 7.38e-05 ± 3.6e-05 |

| Variant | self-cleavage kobs at 2500 uM GlcN6P [s⁻¹] |
| --- | --- |
| C11G C34A G37U | < 1e-05 |
| G7C G38C G51U | < 1e-05 |
| A12C A36C C71A | < 1e-05 |
| A33U G35C G62A | < 1e-05 |
| U31G G37U U56G | < 1e-05 |
| U2G U46G A53U | 0.00369 ± 0.0011 |
| U45C A48C U65G C70G | < 1e-05 |
| A48G U55A C70A | 8.47e-05 ± 2.9e-05 |
| C11U C16G G32A A42U C70U | < 1e-05 |
| A12U C50U U65C | < 1e-05 |
| C10A C34A U65C G66C C71G | < 1e-05 |
| A12U C16A A42U G51U | < 1e-05 |
| A15C G32U G38C G59U | < 1e-05 |
| A6G A39G U54G | 0.000164 ± 4.9e-05 |
| A12U G41U A42G G51C | < 1e-05 |
| G7U U57C C68G | < 1e-05 |
| C10U C11A G40A | < 1e-05 |
| A14U G37C A42C | < 1e-05 |
| C16A U56G C70U | 0.000265 ± 6e-05 |
| G37A C68A C70G | < 1e-05 |
| G7C C50U C67A | < 1e-05 |
| C10G G43U A64G | < 1e-05 |
| C11U G35C U54A G60U C71A | < 1e-05 |

| Variant | self-cleavage kobs at 2500 uM GlcN6P [s⁻¹] |
| --- | --- |
| G29C G62A C70G | 3.86e-05 ± 1.9e-05 |
| G13A U30G A53U | 0.000141 ± 4.4e-05 |
| A12U A33U U49A C68A | < 1e-05 |
| G9U U47G C68U | < 1e-05 |
| G37U A48C A53G | < 1e-05 |
| C16A A36G C67G | < 1e-05 |
| G40U A42U G43A C71A | < 1e-05 |
| G29A U69C C70U | 5.97e-05 ± 1.6e-05 |
| A12G U46G C71U | 9.1e-05 ± 2.1e-05 |
| C8G G63U U65C | < 1e-05 |
| U31C C34G A39U A42G U47C C70A | < 1e-05 |
| C8U G37U A39C | < 1e-05 |
| A6C G7C G41A | < 1e-05 |
| A15G A36G G44U G60C | < 1e-05 |
| A6G G7A C16G U49C A53U C67U | < 1e-05 |
| C8G G51C U54G | < 1e-05 |
| A39U G44U A53U | 0.000583 ± 0.00016 |
| C10U A33G G35U U47A G59C | < 1e-05 |
| A6C G29C G51U A53G | < 1e-05 |
| C11U G29A C70A | 0.000404 ± 0.00014 |
| U31C A39G U49G C70U | 2.73e-05 ± 1.4e-05 |
| A15G G32C A53G | 4.37e-05 ± 1.3e-05 |
| G7A G40A A53U | < 1e-05 |

| Variant | self-cleavage kobs at 2500 uM GlcN6P [s⁻¹] |
| --- | --- |
| G35C G38C A48U | < 1e-05 |
| A48U U69A | 2.8e-05 ± 1.3e-05 |
| A39U A53U C70G | 0.0003 ± 7.6e-05 |
| G7A G40A C71A | < 1e-05 |
| U31G U55A C67A | 0.00299 ± 0.00085 |
| G32U G37C A42C | < 1e-05 |
| G63C G66C C67G | < 1e-05 |
| G9U U45G G62C G66C | < 1e-05 |
| G40U A48G C68U | < 1e-05 |
| U30G A53U C58G | 0.000116 ± 3.9e-05 |
| A53G C58U | 1.96e-05 ± 7.8e-06 |
| G59U U65A C68U | < 1e-05 |
| C8G A33C U56C G63U | < 1e-05 |
| G7A G29C G38A G44C | < 1e-05 |
| A6G G60A C67G | < 1e-05 |
| A6U G37C A64G | < 1e-05 |
| A12G G44U G59C G60C | < 1e-05 |
| C11A U30G G43C C68G C71U | 0.000269 ± 9.8e-05 |
| A48C G63A C71A | < 1e-05 |
| C34A G43A U54G | < 1e-05 |
| A53U U54G U55A C71U | 0.00523 ± 0.0019 |
| C10G A12U C50G | 0.000103 ± 2.4e-05 |
| A6G C16U C58U U65G | < 1e-05 |

| Variant | self-cleavage kobs at 2500 uM GlcN6P [s⁻¹] |
| --- | --- |
| G32U U55A C70U | 0.000404 ± 8e-05 |
| U46A A48U | 6.88e-05 ± 2.5e-05 |
| C50U A53U G62C | < 1e-05 |
| G29A G35C C71A | < 1e-05 |
| G35C A52C C58U | < 1e-05 |
| C8U G38C C61A | < 1e-05 |
| A14G C34U G35A G43C | < 1e-05 |
| C34G U46C | < 1e-05 |
| A36G G40U U45C C67U | < 1e-05 |
| G35U U47A U55C | < 1e-05 |
| C16U C58U U69G | 7.44e-05 ± 2.1e-05 |
| U30C G40C G62A | < 1e-05 |
| U45C C61U C70G | < 1e-05 |
| C11A U30G A53U | 0.00017 ± 4.1e-05 |
| G40A A53G C58A | 0.000125 ± 3.1e-05 |
| C8U A36G C50A G51A C68U C70A | 0.000112 ± 4.4e-05 |
| C34G G41U A42U | < 1e-05 |
| A39U U46G U56G | 0.000873 ± 0.00027 |
| A14G G32C C58A A64G | 9.27e-05 ± 3e-05 |
| U45C G66C C71A | 6.04e-05 ± 2.8e-05 |
| G35C A36G G40U C70U | < 1e-05 |
| A6U G41C U65A G66C | < 1e-05 |
| G7A G43A C70A | < 1e-05 |

| Variant | self-cleavage kobs at 2500 uM GlcN6P [s⁻¹] |
| --- | --- |
| A15C C16G A39C U46G U56C | < 1e-05 |
| C11G C67A | < 1e-05 |
| A12G A39U U47G | 8.38e-05 ± 1.6e-05 |
| C8A U55A C71U | < 1e-05 |
| A48G C50A U69G | 0.000106 ± 3e-05 |
| A14U C50G G60C | 0.000405 ± 0.00014 |
| A12U G35A A39G U45C C61U | < 1e-05 |
| G32U C34A G43C C71G | < 1e-05 |
| G7C U30A G44A | < 1e-05 |
| C10U G29C A36G G41U U54A | < 1e-05 |
| C34A G44C G59U G63A | < 1e-05 |
| G32U G35U A53G C58A | < 1e-05 |
| U46A A52G G62U C70U | < 1e-05 |
| G35U G60A C68U | < 1e-05 |
| U30G A33U G35C U46C | < 1e-05 |
| C10A G41A G43C | < 1e-05 |
| C8U A42C U46A U55A | < 1e-05 |
| G35C A42U U56C C68G | < 1e-05 |
| G32C G37U G40U U55G | < 1e-05 |
| U46A U49A G63C C67G | < 1e-05 |
| U46A A48U G51C | < 1e-05 |
| C8A G32C G40U U55A | < 1e-05 |

Variants of: B1
Assay: self-cleavage kobs at 10000 uM GlcN6P; higher = faster cleavage; RNA array
Details: with glucosamine-6-phosphate
How it was run: as §1

| Variant | self-cleavage kobs at 10000 uM GlcN6P [s⁻¹] |
| --- | --- |
| C16G U65A C71U | 0.000346 ± 8.7e-05 |
| A6U G7C A15U G29C G38A G44A C61A | < 1e-05 |
| G32A U45C | 9.73e-05 ± 2.3e-05 |
| A12U G41U A42G G51C | < 1e-05 |
| A12U A33U U49A C68A | < 1e-05 |
| G29A U69C C70U | 7.72e-05 ± 1.5e-05 |
| C8G G63U U65C | < 1e-05 |
| C11U G29A C70A | 5.6e-05 ± 1.8e-05 |
| A39U A53U C70G | 0.000276 ± 5e-05 |
| A53G C58U | 0.000105 ± 9.8e-06 |
| G7A G29C G38A G44C | < 1e-05 |
| C11A U30G G43C C68G C71U | 0.000118 ± 3e-05 |
| G29A G35C C71A | < 1e-05 |
| G35C A52C C58U | < 1e-05 |
| G32U C34A G43C C71G | < 1e-05 |
